The IC50 is the concentration that inhibits the measured activity by half.

Ends that are not written are not given here.

The text below walks through data of patent US20170114117A1 (OREGON HEALTH AND SCIENCE UNIVERSITY, published 2017).

In assay [1] the target is T1, DRα1-mMOG-35-55.
T1 construct: Coated onto ELISA plates at 1 µg/ml; also called DRa1mMOG-35-55; DRα1-MOG-35-55
Kind of assay: competition ELISA (FIG. 4), competitor against rmCD74 on DRα1mMOG-35-55. A general note: An ELISA detects its analyte on a solid surface through an enzyme-linked reagent.

The target of assay [2] is T2, human macrophage migration inhibitory factor (MIF) (human, UniProt P14174 2-115).
T2 construct: Coated onto ELISA plates at 0.5 µg/ml; also called hMIF; human MIF
Kind of assay: competition ELISA, hMIF coated, competitor against rmCD74 (0.5 µg/ml), two-binding-site fit. How it is done: (§1) The ability of α-helix 1 and α-helix 2 peptides to compete with MIF for binding to CD74 was tested. […] Wells were thoroughly washed with PBS/T20 and the mAb PIN.1/anti-mIgG1-HRP (at 0.5 μg/ml in 5% BSA/PBS each) was used to detect the remaining rmCD74 bound to MIF. This mAb recognizes an epitope located at the N-terminus of the protein. Color was developed after adding 50 μl of TMB for 5 minutes and the reaction was stopped with 50 μl of 0.1N HCl. Data was first normalized and then analyzed using GraphPad Prism software. IC₅₀ were calculated by fitting the curve to a competition model involving a two-binding site equation.

In the next assay the target is T3, RTL1000.
T3 construct: Coated onto ELISA plates at 1 µg/ml; also called recombinant T cell receptor ligand
Nature of the assay: competition ELISA, RTL1000 coated, competitor against rmCD74 (50 nM), one-binding-site fit. How it is done:
(§2) Competition of peptides with rmCD74 for binding to RTL1000 or DRα1mMOG35-55 was also tested. Briefly, 50 μl of 1 μg/ml either RTL1000 or DRα1mMOG-35-55 were coated onto ELISA plates at 25° C. for 2 hours. […] Serial 1:2 dilutions of α-helix 1 or α-helix 2 (starting with a concentration of 66 μM, 50 μg/ml each) were prepared in rmCD74 (in BSA/PBS, 50 nM, 0.5 ug/ml) and added to the plate. Competition for the binding site was allowed for 3 hours at 25° C. and then unbound complexes were washed 4 times with PBS/T20. Remaining rmCD74 bound to RTL1000 or DRα1mMOG-35-55 was detected by the PIN.1/anti-mouse IgG1-HRP at 1 ul/ml of both in BSA/PBS for 1.5 hours at 25° C. and visualized by adding TMB substrate (50 μl, according to the manufacturer's instructions). Color development was stopped with 0.1N HCl and the plate was read at 450 nm in an ELISA plate reader. Data were normalized and fitted to a one-binding site model and competitor concentration was plotted against Absorbance at 450 nm to determine the IC₅₀ of each peptide competitor. All data were analyzed using Prism software (GraphPad).

Assay [3] addresses T1, DRα1-mMOG-35-55. Kind of assay: competition ELISA (FIG. 4, right panel), competitor against rmCD74 on DRα1-mMOG-35-55.
The target of assay [4] is T1, DRα1-mMOG-35-55. Nature of the assay: competition ELISA, DRα1mMOG-35-55 coated, competitor against rmCD74 (50 nM), one-binding-site fit. How it is done: as §2
Assay [5] concerns the target T1, DRα1-mMOG-35-55. Kind of assay: competition ELISA (FIG. 4, left panel), competitor against rmCD74 on DRα1-mMOG-35-55.
Assay [6] addresses T2, human macrophage migration inhibitory …. Nature of the assay: competition ELISA, hMIF coated, competitor against rmCD74. How it is done: as §1

B1: CD74 α-helix 1 peptide (SEQ ID NO: 2) (peptide)
peptide: TEDHVMHLLQNAD
notes: also called human CD74 α-helix 1; alpha helix 1
For the molecule B1, the IC50 with DRα1-mMOG-35-55 [1] is 35 µM; in assay [2], 41.8 µM; in the assay with RTL1000 it was 6.78 µM; in the assay with DRα1-mMOG-35-55 [3], 35 µM; with DRα1-mMOG-35-55 [4], 10.1 µM. For the same molecule, the results for the LogIC50 with RTL1000 and with DRα1-mMOG-35-55 [4] were 0.831 and 1, respectively.

B2: CD74 α-helix 2 peptide (SEQ ID NO: 4) (peptide)
peptide: KGSFPENLRHLKNTMET
notes: also called human CD74 α-helix 2; alpha helix 2
Take B2: the IC50 in assay [2] was determined as 114 µM; with RTL1000, 34.3 µM; with DRα1-mMOG-35-55 [3], 24.5 µM; with DRα1-mMOG-35-55 [4], 167 µM. The figures for the LogIC50 with RTL1000 and in the assay with DRα1-mMOG-35-55 [4] were 1.53 and 2.22, respectively.

B3: mixture of synthetic peptides SEQ ID NO: 2 (α-helix 1) and SEQ ID NO: 4 (α-helix 2) (other)
peptide 1: TEDHVMHLLQNAD
peptide 2: KGSFPENLRHLKNTMET
modifications: also: mixture of two separate peptides, not covalently linked
notes: A mixture of two separate peptides that are not covalently linked; In the hMIF assay the starting concentration was 33 µM of each peptide, 66 µM in total; also called α-helix 1 plus α-helix 2; combined peptides
On to B3, for which the concentration for half-maximal inhibition (IC50) was 4.75 µM in the assay with DRα1-mMOG-35-55 [1], 4.71 µM with DRα1-mMOG-35-55 [5] and 3.74 µM in assay [2]. Besides, the “fold increase of the blocking effect against α-helix 1 alone” value in assay [6] worked out at 10 fold.
